Publication PMC12148038, “Enhancement of CEP215 dynamics for spindle pole assembly during mitosis” (Journal of Cell Science, 2025)

B1: PCNT^2350-2450 (domain or fragment, human, UniProt O95613 2350-2450, looked up)
chain: RLSPGSGGPEAQTAGPVTPASISGRFQPLPEAMKEKEVRPKHVKALLQMVRDESHQILALSEGLAPPSGEPHPPRKEDEIQDISLHGGKTQEVPTACPDWR
notes: PCNT (pericentrin), human, residues 2350-2450; Homodimer by SEC-MALS; calculated monomer mass 11.3 kDa, which fits a fragment without MBP; source: bacterially expressed, purified (amylose column, TEV cleavage, anion exchange, SEC)
B2: MBP–PCNT^2388-2420 (domain or fragment, human, UniProt O95613 2388-2420, looked up)
chain: RPKHVKALLQMVRDESHQILALSEGLAPPSGEP
notes: PCNT (pericentrin), human, residues 2388-2420; source: E. coli Rosetta (DE3) (pET Duet-1 vector), purified (amylose column, SEC)
B3: MBP–CEP215^1661-1893 (domain or fragment, human, UniProt Q96SN8 1661-1893, looked up)
chain: MESDNSFDLFDSSQAVTPKSVSETPPLSGNDTDSLSCDSGSSATSTPCVSRLVTGHHLWASKNGRHVLGLIEDYEALLKQISQGQRLLAEMDIQTQEAPSSTSQELGTKGPHPAPLSKFVSSVSTAKLTLEEAYRRLKLLWRVSLPEDGQCPLHCEQIGEMKAEVTKLHKKLFEQEKKLQNTMKLLQLSKRQEKVIFDQLVVTHKILRKARGNLELRPGGAHPGTCSPSRPGS
notes: Homodimer by SEC-MALS; calculated monomer mass with MBP 71.8 kDa; also called CEP215 fragment; source: bacterially expressed (pPROEX vector), purified (amylose column, SEC)

Tests used:
[1] = target: MBP–CEP215^1661-1893 (human) (UniProt Q96SN8); test: ITC; 25 µM MBP–CEP215 1661-1893 in the cell, titrated with 250 µM PCNT fragment, 29 injections, 25°C, MicroCal PEAQ-ITC
[2] = target: the molecule itself; test: SEC-MALS; each purified protein at 1 to 5 mg/ml on Superdex 200 Increase 5/150 GL with MALS-UV-RI detectors
[3] = target: T1, MBP–CEP215^1814-1877 (human, UniProt Q96SN8 1814-1877); test: SEC; mixture of the two purified proteins, size exclusion chromatography followed by SDS-PAGE of the fractions; settings: both partners purified
T1 construct: CEP215 (CDK5RAP2), human, residues 1814-1877; source: E. coli Rosetta (DE3) (pET Duet-1 vector), purified (amylose column, SEC)
T1 sequence (looked up): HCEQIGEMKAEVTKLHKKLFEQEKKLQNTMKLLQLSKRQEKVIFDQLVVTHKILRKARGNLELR

Molecule	stoichiometry N [2]	further results
PCNT fragment used in the ITC experiment (from UniProt O95613 2350-2450) (domain or fragment)	–	Kd [1]: 164 nM
B1	2	–
B2	–	binding result [3]: binds
B3	2	–
